Substitutions are numbered along the chain they refer to.
B1: AH01947 (antibody, human IgG1, V domains shown)
VH: QVQLQESGPGLVKPSQTLSLTCTVSGYSITSGYTWHWIRQHPGKGLEWIGYIHYSGSTKYNPSLKSRVTISVDTSKNQFSLKLSSVTAADTAVYYCARNSLFASWGQGTLVTVSS
VL: DIVLTQSPDSLAVSLGERATINCRASESVDTYGDSFMHWFQQKPGQPPKLLIYRASNLESGVPDRFSGSGSGTDFTLTISSLQAEDVAVYYCQQSNEAPYTFGGGTKLEIK
notes: also called mPD-L1Ab-CBM clone AH01947
B2: AH01964 (antibody, human IgG1, V domains shown)
VH: B1 VH with V72R
VL: DIVMTQSPDSLAVSLGERATINCRASESVDTYGDSFMHWYQQKPGQPPKLLIYRASNLESGVPDRFSGSGSGTDFTLTISSLQAEDVAVYYCQQSNEAPYTFGGGTKL
notes: also called mPD-L1Ab-CBM clone AH01964
B3: AH02030 (antibody, human IgG1, V domains shown)
VH: B1 VH with S25T, V68F, S71T, V72R
VL: B1 VL with F40Y, G72R
notes: also called mPD-L1Ab-5BM clone AH02030
B4: AH02033 (antibody, human IgG1, V domains shown)
VH: B1 VH with S25T, I49M, V68F, V72R
VL: B1 VL with V62I
notes: also called mPD-L1Ab-5BM clone AH02033
B5: Chimeric antibody (antibody, V domains shown)
VH: DVQLQESGPDLVKPSQSLSLTCTVTGYSITSGYTWHWIRQFPGNKLEWMGYIHYSGSTKYNPSLKSRFSITRDTSKNQFFLQLNSMTAEDTATYYCARNSLFASWGHGTLVTVSA
VL: DIVLTQSPASLAVSLGQRATISCRASESVDTYGDSFMHWFQQKPGQPPKLLIYRASNLESGIPARFSGSGSRTDFTLTINPVEADDVATYYCQQSNEAPYTFGGGTKLEIK
notes: also called mPD-L1Ab-Chim
B6: Chimeric antibody (as ranked in Table 2) (Fab, V domains shown)
VH: B5 VH
VL: B5 VL
B7: AH01950 (prokaryotically expressed antibody product) (Fab, V domains shown)
VH: B1 VH with V72R
VL: B1 VL
B8: AH01964 (prokaryotically expressed antibody product) (Fab, V domains shown)
VH: B1 VH with V72R
VL: B2 VL
B9: AH02030 (prokaryotically expressed antibody product) (Fab, V domains shown)
VH: B1 VH with S25T, V68F, S71T, V72R
VL: B1 VL with F40Y, G72R
B10: AH01963 (prokaryotically expressed antibody product) (Fab, V domains shown)
VH: B1 VH with V72R
VL: B1 VL with F40Y, L82V
B11: AH01947 (prokaryotically expressed antibody product) (Fab, V domains shown)
VH: B1 VH
VL: B1 VL
B12: AH01946 (prokaryotically expressed antibody product) (Fab, V domains shown)
VH: B1 VH with V72R, V86M
VL: B1 VL with L82V
B13: AH02029 (prokaryotically expressed antibody product) (Fab, V domains shown)
VH: B1 VH with S25T, T69S, V72R
VL: B1 VL with F40Y
B14: AH02033 (prokaryotically expressed antibody product) (Fab, V domains shown)
VH: B1 VH with S25T, I49M, V68F, V72R
VL: B1 VL with V62I

molecular target: T1, PD-L1-HIS recombinant protein (human, UniProt Q9NZQ7 19-238, limits assumed); test: SPR (Biacore 8K), antibody captured on chip, PD-L1-HIS analyte 2.5-80 nM, 1:1 binding model
T1 construct: not shown: His tag
Method: The chip surface was equilibrated with HBS-EP buffer at a flow rate of 10 μl/min for 5 min, and then a 1:1 mixture of “NHS+EDC” was injected at a flow rate of 10 μl/min for 420 sec to activate the chip. The capture antibody (goat anti-murine IgG) diluted in 10 mM sodium acetate buffer was injected for about 420 sec at a flow rate of 10 μl/min for coupling, and finally ethanolamine was injected for 420 sec at a flow rate of 10 μl/min to block the surface.
Three pre-cycles were performed with the HBS-EP buffer as a sample to balance the chip to stabilize the baseline. The antibody diluted in HBS-EP buffer was injected for 30 sec at a flow rate of 10 μl/min (where the antibody-antigen binding signal was controlled to about 100 RU by adjusting the capture time between 0-5 min), and then the chip was equilibrated with the buffer for 1 min. The low-concentration antigen 2.5 nM PD-L1-HIS was injected at a flow rate of 30 μl/min for 240/300 seconds, to allow the antigen to bind to the antibody, and then the buffer was injected at a flow rate of 30 μl/min for 720/600 seconds for dissociation. 50 mM HCl were injected three times each for 15 s at a flow rate of 100 μl/min for regeneration, to complete one cycle. The antigen concentration was changed (such as 5 nM PD-L1-HIS) to carry out the cycle for measurement at a next gradient concentration until all gradient concentrations (2.5 nM, 5 nM, 10 nM, 20 nM, 40 nM, 80 nM PD-L1-HIS) and the replicate (such as 10 nM PD-L1-HIS) were tested.
The experimental data was double subtracted (minus the background values of the control channel and zero concentration), and fitted to the “1:1 binding” model in the Biacore 8K evaluation software. Biacore 8K was used to determine the affinity of the antibody to the PD-L1-HIS recombinant protein.

T1 sequence (Q9NZQ7 19-238 limits assumed): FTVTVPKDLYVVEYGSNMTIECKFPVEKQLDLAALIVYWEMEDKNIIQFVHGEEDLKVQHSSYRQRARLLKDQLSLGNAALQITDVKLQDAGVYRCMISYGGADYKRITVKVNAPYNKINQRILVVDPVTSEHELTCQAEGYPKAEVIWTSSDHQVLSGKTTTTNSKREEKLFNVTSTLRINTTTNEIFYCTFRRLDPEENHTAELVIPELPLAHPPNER

Kd [pM]	koff [s⁻¹]	kon [M⁻¹ s⁻¹]	Binder
3110	0.000714	230000	B1
1760	0.00037	210000	B2
1170	0.000216	185000	B3
903	0.000166	184000	B4
1270	0.000219	172000	B5

molecular target: T2, human PD-L1 protein (human, UniProt Q9NZQ7 19-238, limits assumed); test: ELISA on human PD-L1 protein; control antibody stored at -80 C
Method: (§1) The antibody samples were treated for 20 min at various temperature gradients respectively, and then centrifuged to remove the pellet. Then the amount of remaining antibody was evaluated by ELISA. (The temperature gradient includes: room temperature, 30° C., 40° C., 50° C., 60° C., 70° C., […]) (FIG. 4)

T2 sequence (Q9NZQ7 19-238 limits assumed): as above

EC50 (read off the curve) [ng/mL]	Binder
~10	B5

molecular target: T2, human PD-L1 protein; test: ELISA on human PD-L1 protein; antibody treated for 20 min (overlapping curves, room temperature to 60 C by the legend, not told apart)
Method: as §1

EC50 (read off the curve) [ng/mL]	Binder
~8	B5

molecular target: T3, PD-L1/Fc (UniProt Q9NZQ7 19-238, limits assumed); test: SPR (Biacore 8K), antibody as ligand, PD-L1/Fc as analyte, 1:1 binding model
T3 construct: not shown: Fc part
T3 sequence (Q9NZQ7 19-238 limits assumed): as above

Kd [pM]	koff [s⁻¹]	kon [M⁻¹ s⁻¹]	Binder
58	2.03e-05	349000	B6

molecular target: T2, human PD-L1 protein; test: ELISA on human PD-L1 protein; antibody kept at 40 C for 0 (D0), 7 (D7) or 14 (D14) days
Method: The antibody samples were treated separately at 40° C., and then centrifuged to remove the pellet. Then the amount of remaining antibody was evaluated by ELISA. (test after treatment at 40° C. for 7 days (D7) and 14 days (D14) separately; for each test, the untreated sample (D0) stored at −80° C. is used as a control) (FIG. 3)

EC50 (read off the curve) [ng/mL]	Binder
~10	B5

molecular target: T3, PD-L1/Fc; test: SPR (Biacore 8K), prokaryotically expressed antibody as ligand, PD-L1/Fc as analyte, 1:1 binding model

Kd [pM]	koff [s⁻¹]	kon [M⁻¹ s⁻¹]	Binder
36.7	1.9e-05	518000	B7
46.8	2.48e-05	530000	B8
43.9	1.58e-05	359000	B9
34.4	1.63e-05	474000	B10
82.2	4.38e-05	533000	B11
9.4	4.72e-06	502000	B12
56.8	1.93e-05	339000	B13
0.0676	2.71e-08	401000	B14
